Laboratory results: US20250152746A1, “BASE EDITING OF ANGPTL3 AND METHODS OF USING SAME FOR TREATMENT OF DISEASE” (Verve Therapeutics, Inc., priority 2020, published 2025)
Like-named read-outs stand apart in the source and are kept apart here. In the oligonucleotide strings, read from the 5' end, every base follows the letter of its sugar. An asterisk marks phosphorothioate; unmarked linkages are phosphodiester. Other units and linkages are bracketed, terminal groups are in braces. A string of capitals states the bases alone. m = 2'-O-methyl; r = 2'-OH (RNA)

B1: GA078: PCSK9 gRNA for ABE8.8 splice site editing, Human/Cyno (nucleic acid)
guide: AGCACCTACCTCGGGAGCTGGTTTTAGAGCTAGAAATAGCAAGTTAAAATAAGGCTAGTCCGTTATCAACTTGAAAAAGTGGCACCGAGTCGGTGCTTTT
modifications: listed as RNA; note = Description of Combined DNA/RNA Molecule: Synthetic oligonucleotide; modified_base 1: mod_base = OTHER; note = 2'-O-Methyl-adenosine phosphorothioate; modified_base
notes: PCSK9 gRNA for ABE8.8 splice site editing, Human/Cyno
B2: GA083: PCSK9 gRNA for ABE8.8 splice site editing, Human/Cyno (nucleic acid)
guide: UAAGGCCCAAGGGGGCAAGCGTTTTAGAGCTAGAAATAGCAAGTTAAAATAAGGCTAGTCCGTTATCAACTTGAAAAAGTGGCACCGAGTCGGTGCTTTT
modifications: 2'-O-methyl at 1, 2, other sugars and backbone not given here; further chemistry not fully specified
notes: as for B1
B3: GA075: PCSK9 gRNA for ABE8.8 splice site editing, Human/Cyno (nucleic acid)
guide: TTGGAAAGACGGAGGCAGCCGTTTTAGAGCTAGAAATAGCAAGTTAAAATAAGGCTAGTCCGTTATCAACTTGAAAAAGTGGCACCGAGTCGGTGCTTTT
modifications: listed as RNA; modified_base 1: mod_base = OTHER; note = 2'-O-Methyl-uridine phosphorothioate; modified_base 2: mod_base = OTHER; modified_base
notes: as for B1
B4: GA089: PCSK9 gRNA for ABE8.8 splice site editing, Human/Cyno (nucleic acid)
guide: CCCCAGGCTGCAGCTCCCACGTTTTAGAGCTAGAAATAGCAAGTTAAAATAAGGCTAGTCCGTTATCAACTTGAAAAAGTGGCACCGAGTCGGTGCTTTT
modifications: 2'-O-methyl at 1, 2, other sugars and backbone not given here; further chemistry not fully specified
notes: as for B1
B5: GA076: PCSK9 gRNA for ABE8.8 splice site editing, Human/Cyno (nucleic acid)
guide: GAAAGACGGAGGCAGCCTGGGTTTTAGAGCTAGAAATAGCAAGTTAAAATAAGGCTAGTCCGTTATCAACTTGAAAAAGTGGCACCGAGTCGGTGCTTTT
modifications: 2'-O-methyl at 1, 2, other sugars, backbone and T or U not given here; further chemistry not fully specified
notes: as for B1
B6: GA084: PCSK9 gRNA for ABE8.8 splice site editing, Human/Cyno (nucleic acid)
guide: CCTCTTCACCTGCTCCTGAGGTTTTAGAGCTAGAAATAGCAAGTTAAAATAAGGCTAGTCCGTTATCAACTTGAAAAAGTGGCACCGAGTCGGTGCTTTT
modifications: 2'-O-methyl at 1, 2, other sugars and backbone not given here; further chemistry not fully specified
notes: as for B1
B7: GA090: PCSK9 gRNA for ABE8.8 splice site editing, Human/Cyno (nucleic acid)
guide: GCAGGTGACCGTGGCCTGCGGTTTTAGAGCTAGAAATAGCAAGTTAAAATAAGGCTAGTCCGTTATCAACTTGAAAAAGTGGCACCGAGTCGGTGCTTTT
modifications: listed as RNA; modified_base 1: mod_base = OTHER; note = 2'-O-Methyl-guanosine phosphorothioate; modified_base 2: mod_base = OTHER; note = 2'-O-Methyl-cytidine phosphorothioate; modified_b
notes: as for B1
B8: GA082: PCSK9 gRNA for ABE8.8 splice site editing, Human/Cyno (nucleic acid)
guide: CTTACCTGCCCCATGGGTGCGTTTTAGAGCTAGAAATAGCAAGTTAAAATAAGGCTAGTCCGTTATCAACTTGAAAAAGTGGCACCGAGTCGGTGCTTTT
modifications: listed as RNA; modified_base 1: mod_base = OTHER; note = 2'-O-Methyl-cytidine phosphorothioate; modified_base 2: mod_base = OTHER; note = 2'-O-Methyl-uridine phosphorothioate; modified_bas
notes: as for B1
B9: GA086: PCSK9 gRNA for ABE8.8 splice site editing, Human/Cyno (nucleic acid)
guide: TTCACCTGCTCCTGAGGGGCGTTTTAGAGCTAGAAATAGCAAGTTAAAATAAGGCTAGTCCGTTATCAACTTGAAAAAGTGGCACCGAGTCGGTGCTTTT
modifications: listed as RNA; modified_base 1: mod_base = OTHER; note = 2'-O-Methyl-uridine phosphorothioate; modified_base 2: mod_base = OTHER; modified_base
notes: as for B1
B10: GA115: ANGPTL3 gRNA; protospacer AACATAGCAAATCTTGATTT (SEQ ID NO: 113) (nucleic acid)
guide: AACATAGCAAATCTTGATTTGTTTTAGAGCTAGAAATAGCAAGTTAAAATAAGGCTAGTCCGTTATCAACTTGAAAAAGTGGCACCGAGTCGGTGCTTTT
modifications: 2'-O-methyl at 1, 2, other sugars and backbone not given here; further chemistry not fully specified
B11: GA085: PCSK9 gRNA for ABE8.8 splice site editing, Human/Cyno (nucleic acid)
guide: GCCTCTTCACCTGCTCCTGAGTTTTAGAGCTAGAAATAGCAAGTTAAAATAAGGCTAGTCCGTTATCAACTTGAAAAAGTGGCACCGAGTCGGTGCTTTT
modifications: listed as RNA; modified_base 1: mod_base = OTHER; note = 2'-O-Methyl-guanosine phosphorothioate; modified_base 2: mod_base = OTHER; note = 2'-O-Methyl-cytidine phosphorothioate; modified_b
notes: as for B1
B12: GA391 (nucleic acid)
guide: mC*mC*rGrCrArCrCrUrUrGrGrCrGrCrArGrCrGrGmGrUrUrUrUrArGmAmGmCmUmArGmAmAmAmUmAmGmCmAmArGrUrUmArAmArAmUrAmAmGmGmCmUmArGrUmCmCrGrUrUrAmUmCrArAmCmUmUrGmAmAmAmAmAmGmUmGrGmCmAmCmCmGmAmGmUmCmGmGmUmGmCmU*mU*mU*mU

Assays:
PCSK9 gene splice site = assay type: cell-based, human; conditions: for Editing % at Position 6: Human Primary Hepatocytes, gRNA co-transfected with ABE8.8 mRNA 1:1 by weight
Method: PCSK9 gRNAs were co-transfected with an equivalent amount of in vitro transcribed ABE8.8 mRNA MA002 (1:1 ratio by weight) into primary hepatocytes and processed as described in detailed methods. In one set of experiments, extracted genomic DNA was analyzed for base editing of the target splice site with next-generation sequencing of PCR amplicons generated around the target sites. Samples were prepared using the Nextera XT DNA library preparation kit (Illumina) according to the manufacturer's protocol. Briefly, two rounds of PCR were performed first to amplify the region of interest and second to add DNA sequences required for next generation sequencing and sample identification to the initial product. The final amplicon was sequenced on the Illumina MiSeq instrument according to the manufacturer's protocol.
Similarly, three gRNAs (GA098, GA099, GA100) were synthesized matching the 5′-[…]-3′ (SEQ ID NO: 15) (GA091) human protospacer sequence, as well as four gRNAs (GA067/GA101, GA102, GA103, GA347) matching the 5′-[…]-3′ (SEQ ID NO: 14) (GA067) cynomolgus protospacer sequence, but with more extensive chemical modifications of various kinds (Table 1). GA066 and GA095 contain the same chemical composition and modification pattern, as do GA067 and GA101 with one another. […] Each of the gRNAs described in Table 8, with an equivalent amount of in vitro transcribed ABE8.8 mRNA MA002 (1:1 ratio by weight), were co-transfected into primary human hepatocytes and primary cynomolgus hepatocytes via MessengerMax reagent, using various dilutions to assess for editing activity at different concentrations of test article. Three days after transfection, genomic DNA was harvested from the hepatocytes, and then assessed for base editing of the target splice site with next-generation sequencing.
Modifications and/or truncations to either the spacer or tracr portion of the gRNA was assessed by alteration of the GA066 spacer (5′-[…]-3′ (SEQ ID NO: 13)) (Table 12). […] Each of the gRNAs with an equivalent amount of in vitro transcribed ABE8.8 mRNA (1:1 ratio by weight) were co-transfected into primary human hepatocytes and primary cynomolgus hepatocytes and processed as described in detailed methods. […]

ANGPTL3 gene = assay: ANGPTL3 gRNA/SpCas9 editing in primary cynomolgus hepatocytes (Table 3); assay type: cell-based, cynomolgus monkey
Method: In set of experiments, PCSK9 gRNAs were co-transfected with an equivalent amount (1:1 ratio by weight) of in vitro transcribed commercially available SpCas9 mRNA MS002 purchased from TriLink Biotechnologies into primary human hepatocytes at 2500, 500, or 100 ng/RNA/mL and processed as described in detailed methods. Extracted genomic DNA was analyzed for gene editing at the target site with next-generation sequencing of PCR amplicons generated around the target sites. Samples were prepared using the Nextera XT DNA library preparation kit (Illumina) according to the manufacturer's protocol. Briefly, two rounds of PCR were performed first to amplify the region of interest and second to add DNA sequences required for next generation sequencing and sample identification to the initial product. The final amplicon was sequenced on the Illumina MiSeq instrument according to the manufacturer's protocol. A wide range of editing activities (Table 2) were observed. In a second set of experiments, ANGPTL3 gRNAs were co-transfected with an equivalent amount of in vitro transcribed SpCas9 mRNA (1:1 ratio by weight) into primary human hepatocytes and processed and analyzed similarly (Table 3).
Plating, culturing, and transfection of primary hepatocytes. Primary human liver hepatocytes (PHH) and primary cynomolgus liver hepatocytes (PCH) from BioIVT were cultured per the manufacturer's protocol. Briefly, primary human hepatocytes and primary cyno hepatocytes were obtained as frozen aliquots from BioIVT. Four lots of primary human hepatocytes, each derived from a de-identified individual donor, were used for the experiments: STL (main donor) was used for all experiments, including screening experiments and off-target experiments; HLY, JLP, and TLY were used for off-target experiments. The HFG lot of primary cyno hepatocytes were used for experiments. Following the manufacturer's instructions, cells were thawed and rinsed prior to plating in 24-well plates that had been coated with bovine collagen overnight, with a density of approximate 350,000 cells/well in INVITROGRO hepatocyte medium supplemented with TORPEDO antibiotic mix (BioIVT). The cells were thawed and resuspended in hepatocyte thawing medium followed by centrifugation at 100 g for 10 min at 4° C. The supernatant was discarded, and the pelleted cells resuspended in hepatocyte plating medium. Each vial contains approximately 5 million cells that were used for plating one 24-well plate. Plated cells were allowed to settle and adhere for 4-6 h in a tissue culture incubator at 37° C. under 5% CO2 atmosphere. After incubation, cells were checked for monolayer formation. The incubating media were then replaced with fresh hepatocyte maintenance media (complete INVITROGRO medium obtained from BioIVT, the cell line provider). The cells thus became ready for transfection. Each of the gRNAs were co-transfected with an equivalent amount of in vitro transcribed ABE8.8 mRNA (1:1 ratio by molecular weight) into primary human hepatocytes via MessengerMax reagent (Lipofectamine), using various dilutions to assess for editing activity at different concentrations of test article. MessengerMAX from Thermo Fisher is used for transfection. Solution A: desired amount of guide RNA is mixed with 1:1 wt ratio of mRNA in OptiMEM. Solution B: MessengerMAX in OptiMEM. After mixing solutions A and B, the mixture was incubated at room temperature for 20 min. 60 μL of the incubated solution was added dropwise to each cell wells. For protospacer sequences that were a perfect match to the corresponding cynomolgous monkey PCSK9 or ANGPTL3 gene sequence, each gRNA was also co-transfected with an equivalent amount of ABE8.8 mRNA (1:1 ratio by molecular weight) into primary cynomolgous hepatocytes, and followed the same transfection protocol. The cells were then allowed to remain at 37° C. for 3 days. […]

Row | Molecule | Human Primary Hepatocytes-splice site editing % 1250 ng/mL (PCSK9 gene splice site) | Human Primary Hepatocytes-splice site editing % 2500 ng/mL (PCSK9 gene splice site) | Human Primary Hepatocytes-splice site editing % 5000 ng/mL (PCSK9 gene splice site) | other results
1 | B1 | 6.5% | 10.0% | 12.6% | –
2 | B2 | 0.2% | 0.2% | 0.2% | –
3 | B3 | 1.8% | 3.1% | 5.5% | –
4 | B4 | 5.4% | 14.1% | 18.1% | –
5 | B5 | 1.6% | 3.9% | 4.9% | –
6 | B6 | 4.9% | 7.6% | 8.6% | –
7 | B7 | 0.3% | 0.5% | 0.4% | –
8 | B8 | 5.6% | 9.6% | 9.8% | –
9 | B9 | 2.9% | 4.9% | 5.7% | –
10 | B10 | – | – | – | Cyno Primary Hepatocyte Editing % 100 ng/mL (ANGPTL3 gene): 12.58%; Cyno Primary Hepatocyte Editing % 500 ng/ml (ANGPTL3 gene): 25.51%
11 | B11 | 1.2% | 1.8% | 2.4% | –
12 | B12 | – | – | – | Editing % at Position 6 (PCSK9 gene splice site; 312.5 ng/mL, rep1): 16.86%; Editing % at Position 6 (PCSK9 gene splice site; 312.5 ng/mL, rep2): 15.78%; Editing % at Position 6 (PCSK9 gene splice site; 625 ng/mL, rep1): 27.12%; Editing % at Position 6 (PCSK9 gene splice site; 625 ng/mL, rep2): 18.67%; Editing % at Position 6 (PCSK9 gene splice site; 1250 ng/mL, rep1): 25.43%; Editing % at Position 6 (PCSK9 gene splice site; 1250 ng/mL, rep2): 27.3%; Editing % at Position 6 (PCSK9 gene splice site; 2500 ng/mL, rep1): 25.58%; Editing % at Position 6 (PCSK9 gene splice site; 2500 ng/mL, rep2): 30.06%
